Measured values taken from patent US20230340137A1, “METHODS, THERAPIES AND USES FOR TREATING CANCER” (PFIZER INC., priority 2020, published 2023).

Tests used:
[1] = tested on: MM.1S-PD-L1 multiple myeloma cells; test: Subcutaneous MM.1S-PD-L1 multiple myeloma mouse model, tumor volume; assay type: in vivo
Procedure: MM.1S multiple myeloma cells were engineered to express PD-L1 and are referred to as MM.1S-PD-L1. Pre-activated and expanded T cells (20×10^6) were administered on Day 19 after MM.1S-PDL1 tumor cell inoculation subcutaneously (SC). BCMAxCD3 bispecific (0.3 or 1 mg/kg) or negative bispecific (1 mg/kg) was administered IV on Day 21 and dosed Q7Dx3. Anti-PD-1 mAb was administered at 5 mg/kg intraperitoneally (IP) twice a week starting on Day 21. Tumor measurements were recorded 2 to 3 times a week using digital calipers. N (at study start) is 5-12 animals per group.

[2] = tested on: H929-luc cells; test: BCMAxCD3 mediated cell killing with human T cells, with or without GSI (luciferase viability); assay type: cell-based; conditions: with or without 1 μM GSI, 60 hours
Procedure: (§1) CD3^+ T cells from PBMCs (Stem Cell Technologies) were negatively selected using EasySep Human T cell enrichment kit (Stem Cell Technologies). Multiple myeloma cells expressing luciferase (MM.1S-luc, OPM2-luc, H929-luc, Molp8-luc, RPMI8226-luc) were treated with 1 μM GSI […]. After 24 hours, cells were seeded with 50,000 CD3^+ pan T cells in a clear 96-well V-bottom plate. Cells were further treated with a range of BCMAxCD3 bispecific antibody concentrations with or without 1 μM GSI. 60 hours after treatment, luciferase activity in treated cells was analyzed using NeoLite reagent kit (Perkin Elmer) and acquired on VictorX multimode plate reader (Perkin Elmer). Cell viability was calculated by dividing luciferase activity of treated cells over luciferase activity of untreated control (no BCMAxCD3 bispecific antibody added).

[3] = tested on: OPM2-luc cells; test: as above; assay type: cell-based; conditions: with or without 1 μM GSI, 60 hours
Procedure: as §1

Which “Tumor Volume ± SEM” value ([1]; day 14 post inoculation (before dosing), bispecific 0.3 mg/kg IV Q7Dx3 from Day 21, anti-PD-1 5 mg/kg IP twice a week) does the source give for “PF-06863135: heterodimeric humanized full-length bispecific antibody, one BCMA binding arm and one CD3 binding arm, modified human IgG2Δa Fc” here?
Its value is 34.4 ± 9.5 mm^3.

What about the “Tumor Volume ± SEM” value ([1]; day 14 post inoculation (before dosing), bispecific 1 mg/kg IV Q7Dx3 from Day 21, anti-PD-1 5 mg/kg IP twice a week) of the same substance?
Its value is 26.4 ± 7.5 mm^3.

What about the “Tumor Volume ± SEM” value ([1]; day 18 post inoculation (before dosing), bispecific 0.3 mg/kg IV Q7Dx3 from Day 21, anti-PD-1 5 mg/kg IP twice a week) of the same substance?
Its value is 91.6 ± 18 mm^3.

And the “Tumor Volume ± SEM” value ([1]; day 18 post inoculation (before dosing), bispecific 1 mg/kg IV Q7Dx3 from Day 21, anti-PD-1 5 mg/kg IP twice a week)?
Its value is 92 ± 17.1 mm^3.

And the “Tumor Volume ± SEM” value ([1]; day 20 post inoculation (before dosing), bispecific 0.3 mg/kg IV Q7Dx3 from Day 21, anti-PD-1 5 mg/kg IP twice a week)?
Its value is 122.5 ± 20.7 mm^3.

What about the “Tumor Volume ± SEM” value ([1]; day 20 post inoculation (before dosing), bispecific 1 mg/kg IV Q7Dx3 from Day 21, anti-PD-1 5 mg/kg IP twice a week) of the same substance?
Its value is 130.7 ± 24.6 mm^3.

What about the “Tumor Volume ± SEM” value ([1]; day 25 post inoculation, bispecific 0.3 mg/kg IV Q7Dx3 from Day 21, anti-PD-1 5 mg/kg IP twice a week) of the same substance?
Its value is 403 ± 59 mm^3.

And the “Tumor Volume ± SEM” value ([1]; day 25 post inoculation, bispecific 1 mg/kg IV Q7Dx3 from Day 21, anti-PD-1 5 mg/kg IP twice a week)?
The value was 601.1 ± 70 mm^3.

And the “Tumor Volume ± SEM” value ([1]; day 28 post inoculation, bispecific 0.3 mg/kg IV Q7Dx3 from Day 21, anti-PD-1 5 mg/kg IP twice a week)?
The value was 403.3 ± 67.6 mm^3.

And the “Tumor Volume ± SEM” value ([1]; day 28 post inoculation, bispecific 1 mg/kg IV Q7Dx3 from Day 21, anti-PD-1 5 mg/kg IP twice a week)?
Its value is 482.9 ± 32.6 mm^3.

What about the “Tumor Volume ± SEM” value ([1]; day 32 post inoculation, bispecific 0.3 mg/kg IV Q7Dx3 from Day 21, anti-PD-1 5 mg/kg IP twice a week) of the same substance?
Its value is 603.6 ± 151.6 mm^3.

And the “Tumor Volume ± SEM” value ([1]; day 32 post inoculation, bispecific 1 mg/kg IV Q7Dx3 from Day 21, anti-PD-1 5 mg/kg IP twice a week)?
Its value is 410.5 ± 82.7 mm^3.

What about the “Tumor Volume ± SEM” value ([1]; day 35 post inoculation, bispecific 0.3 mg/kg IV Q7Dx3 from Day 21, anti-PD-1 5 mg/kg IP twice a week) of the same substance?
The value was 835.1 ± 77.2 mm^3.

And the “Tumor Volume ± SEM” value ([1]; day 35 post inoculation, bispecific 1 mg/kg IV Q7Dx3 from Day 21, anti-PD-1 5 mg/kg IP twice a week)?
Its value is 627.9 ± 111.8 mm^3.

What about the “Tumor Volume ± SEM” value ([1]; day 39 post inoculation, bispecific 0.3 mg/kg IV Q7Dx3 from Day 21, anti-PD-1 5 mg/kg IP twice a week) of the same substance?
The value was 1569.3 ± 151.8 mm^3.

And the “Tumor Volume ± SEM” value ([1]; day 39 post inoculation, bispecific 1 mg/kg IV Q7Dx3 from Day 21, anti-PD-1 5 mg/kg IP twice a week)?
The value was 1436.8 ± 276.4 mm^3.

What about the H929 cell viability ([2]; BCMAxCD3 0.00001 nM) of the same substance?
Its H929 cell viability is 80.2 ± 0.3 % control.

What about the H929 cell viability ([2]; BCMAxCD3 0.00005 nM) of the same substance?
The H929 cell viability was 81.1 ± 0.2 % control.

And the H929 cell viability ([2]; BCMAxCD3 0.00026 nM)?
Its H929 cell viability is 79 ± 0.8 % control.

What about the H929 cell viability ([2]; BCMAxCD3 0.00128 nM) of the same substance?
Its H929 cell viability is 77.8 ± 3.3 % control.

What about the H929 cell viability ([2]; BCMAxCD3 0.0064 nM) of the same substance?
Its H929 cell viability is 81.2 ± 3 % control.

And the H929 cell viability ([2]; BCMAxCD3 0.032 nM)?
Its H929 cell viability is 98.6 ± 1.2 % control.

What about the H929 cell viability ([2]; BCMAxCD3 0.16 nM) of the same substance?
Its H929 cell viability is 23.2 ± 7.2 % control.

What about the H929 cell viability ([2]; BCMAxCD3 0.8 nM) of the same substance?
The H929 cell viability was 11.3 ± 1.5 % control.

And the H929 cell viability ([2]; BCMAxCD3 4 nM)?
Its H929 cell viability is 8.6 ± 3 % control.

What about the OPM2 cell viability ([3]; BCMA × CD3 0.00064 nM) of the same substance?
The OPM2 cell viability was 83.8 ± 3.4 % control.

And the OPM2 cell viability ([3]; BCMA × CD3 0.0032 nM)?
Its OPM2 cell viability is 84.3 ± 3.1 % control.

What about the OPM2 cell viability ([3]; BCMA × CD3 0.016 nM) of the same substance?
The OPM2 cell viability was 68.4 ± 2.4 % control.

What about the OPM2 cell viability ([3]; BCMA × CD3 0.08 nM) of the same substance?
Its OPM2 cell viability is 43.6 ± 6.4 % control.

What about the OPM2 cell viability ([3]; BCMA × CD3 0.4 nM) of the same substance?
The OPM2 cell viability was 3.1 ± 0.8 % control.

And the OPM2 cell viability ([3]; BCMA × CD3 2 nM)?
The OPM2 cell viability was 2.8 ± 0.8 % control.

And the OPM2 cell viability ([3]; BCMA × CD3 10 nM)?
Its OPM2 cell viability is 2 ± 0.2 % control.

What about the OPM2 cell viability ([3]; BCMA × CD3 50 nM) of the same substance?
Its OPM2 cell viability is 3.3 ± 0.3 % control.
